Measured values reported in US20230272055A1 (Incyte, published 2023).
Changes are numbered by the printed parent chain. Names and notes keep the numbering of the source.

How the values were obtained:
[1] = molecular target: MBP protein (UniProt P0AEX9 27-392 = MBP); assay: SPR (Biacore 8K), antibody captured on anti-human IgG (Fc), MBP injected
Method: (§1) Experiment 1: Recombinant MBP-mutCALR Type 1 fusion protein was custom made at Cepter (cepterbiopartners.com). Data for the interaction of antibodies with recombinant MBP-mutCALR Type 1 fusion protein were collected at 25° C. on a Biacore 8K instrument (Cytiva, Marlborough, Mass.), and all reagents were obtained from Cytiva unless otherwise specified. The experiments were conducted using Tris-buffered saline (pH 7.2), 0.005% Surfactant P20, 1 mM CaCl₂) as running buffer. To prepare the capture surfaces, anti-human IgG (Fc) antibodies (Product #29234600) was amine-coupled onto a CM4 chip (Product #BR100534) under standard conditions using an Amine Coupling Kit (Product #BR100050). […] The kinetics parameters were obtained by applying 1:1 binding model to fit the data from multiple-cycle injection experiments using Biacore Insight Evaluation software.

[2] = molecular target: T1, Recombinant MBP-mutCALR Type 1 fusion protein (human); assay: SPR, IgG captured, 1:1 fit, Exp. 2
T1 construct: custom made at Cepter; also called recombinant mutCALR protein
In short: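 Antibodies captured via amine-coupled anti-human IgG (Fc) on a CM4 chip; recombinant MBP-mutCALR Type 1 fusion protein as analyte. Run at 25 °C in Tris-buffered saline pH 7.2, 0.005% P20, 1 mM CaCl₂. Multiple-cycle kinetics fitted to a 1:1 binding model.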

[3] = molecular target: T2, Recombinant MBP-mutCALR Type 2 fusion protein (human); assay: SPR, IgG captured, 1:1 fit, Exp. 3
T2 construct: custom made at Cepter
Method: as §1, with “Experiment 2:” for “Experiment 1:”, “recombinant mutCALR” for “recombinant MBP-mutCALR Type 1 fusion”
Recombinant MBP-mutCALR Type 2 fusion protein was custom made at Cepter (cepterbiopartners.com). Data for the interaction of antibodies with recombinant MBP-mutCALR Type 2 fusion protein were collected as described in Experiment 2. The chip used was a Biacore Series S Sensor Chip CM4 with anti-huFc immobilized onto the chip surface.

[4] = molecular target: T3, Human Type 1 mutCALR (human); assay: cell-based or functional assay
T3 chain: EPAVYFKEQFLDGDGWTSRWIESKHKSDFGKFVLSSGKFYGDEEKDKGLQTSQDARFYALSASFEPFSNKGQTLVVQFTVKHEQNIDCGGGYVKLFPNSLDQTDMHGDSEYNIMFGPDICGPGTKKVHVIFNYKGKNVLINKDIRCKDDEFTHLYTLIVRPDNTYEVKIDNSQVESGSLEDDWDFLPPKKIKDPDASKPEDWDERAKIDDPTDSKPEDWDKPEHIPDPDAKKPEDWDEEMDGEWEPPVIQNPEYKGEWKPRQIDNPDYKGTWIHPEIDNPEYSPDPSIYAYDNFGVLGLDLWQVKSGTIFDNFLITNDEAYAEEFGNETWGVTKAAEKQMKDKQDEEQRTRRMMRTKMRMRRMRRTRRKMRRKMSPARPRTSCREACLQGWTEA

[5] = molecular target: T3, Human Type 1 mutCALR; assay: cell-based or functional assay
[6] = molecular target: T3, Human Type 1 mutCALR; assay: cell-based or functional assay

B1: anti-mutCALR antibody clone 46 (antibody, human IgG1, lambda, V domains shown)
VH: QVQLVQSGAEVKKPGSSVKVSCKASGGTFSSYAISWVRQAPGQGLEWMGGIIPIFGTANYAQKFQGRVTITADESTSTAYMELSSLRSEDTAVYYCASSPLRGSGWYWHYYYGMDVWGQGTTVTVSS
VL: SYELTQPPSVSVAPGKTARITCGGNNIRSKSVHWYQQKPGQAPVLVVYQDSKRPSGIPERFSGSNSGNTATLTISGTQAMDEADYYCQVWDSSTAVFGGGTKLTVLG
- binding result [1]: no binding (tested: 250 nM)

B2: anti-mutCALR antibody clone 49 (antibody, human IgG1, lambda, V domains shown)
VH: B1 VH with Q1E
VL: B1 VL with S29A, S31H, A42S, V47I, N68S, G76R, T77V, Q78E, M80G, A95V
- binding result [1]: no binding (tested: 250 nM)

B3: anti-mutCALR antibody clone 47 (antibody, human IgG1, lambda, V domains shown)
VH: B1 VH with Q1E
VL: B1 VL with N26K, R28G, S29T, V47I, Q49R, K52N, G76R, T77A, M80G, A95V
- binding result [1]: no binding (tested: 250 nM)

B4: anti-mutCALR antibody clone 51 (antibody, human IgG1, lambda, V domains shown)
VH: B1 VH with Q1E
VL: B1 VL with N26K, R28G, S29T, V47I, V89A, D91G, A95V
- binding result [1]: no binding (tested: 250 nM)

B5: anti-mutCALR antibody clone 50 (antibody, human IgG1, lambda, V domains shown)
VH: B1 VH with V2M
VL: B1 VL with E3V, R28G, S29T, A42S, V47I, S51R, A95E
- binding result [1]: no binding (tested: 250 nM)

B6: anti-mutCALR antibody clone 65 (antibody, human IgG1, lambda, N297A, V domains shown)
VH: EVQLVQSGAEVKKPGASVKVSCKVSGYTLTELSMQWVRQAPGKGLEWMGGFDPDDGETMYAEKFQGRLTVTEDTSTDTVYMELRSLTSEDTALYFCATSPGYDFFDYWGQGTLVTVSS
VL: SYVLTQPPSVSVAPGKTARITCTGTSSDVGGYNYVSWYQQKPGQAPVLVVYEVSNRPSGIPERFSGSNSGNTATLTISRVEAGDEADYYCQVWDSSNDLLIFGGGTKLTVLG
notes: human IgG1 N297A variant of clone 6
- Kd [2]: 0.502 nM
- koff [2]: 0.00231 s⁻¹
- kon [2]: 4.6e+06 M⁻¹ s⁻¹
- Kd [3]: 6.35 nM
- koff [3]: 0.00424 s⁻¹
- kon [3]: 668000 M⁻¹ s⁻¹

B7: anti-mutCALR antibody clone 74 (antibody, human IgG1, lambda, N297A, V domains shown)
VH: B6 VH with G56A, R84S, T87R, L93V
VL: B6 VL
notes: as for B6
- Kd [2]: 1.19 nM
- koff [2]: 0.00153 s⁻¹
- kon [2]: 1.29e+06 M⁻¹ s⁻¹
- Kd [3]: 6.78 nM
- koff [3]: 0.00579 s⁻¹
- kon [3]: 854000 M⁻¹ s⁻¹

B8: anti-mutCALR antibody clone 32 (antibody, human IgG1, lambda, V domains shown)
VH: QVQLVQSGAEVKKPGATVKISCKVSGYSFTDYFIHWVQQAPGKGLAWVGLVDPEDGETIYAEKFQGRVTITADTSTDTAYMELSSLRSEDTAVYYCATPGGILTDPDAFDIWGQGTMVTVSS
VL: QSALTQPASVSGSPGQSITISCTGTSSDVGGYNYVSWYQQHPGKAPKLMIYEVSNRPSGVSNRFSGSKSGNTASLTISGLQAEDEADYYCSSYTSSSTPYVFGTGTKVTVLG
- Log IC50 of inhibition of cell proliferation, antibody + ruxolitinib (Ba/F3-TPOR/mutCALR type 1 cells); extrapolated from fitted curve [4]: -0.586 Log IC50 (µg/mL)
- Log IC50 of inhibition of cell proliferation, antibody alone (Ba/F3-TPOR/mutCALR type 1 cells); extrapolated from fitted curve [4]: 0.18 Log IC50 (µg/mL)
- IC50 of inhibition of cell proliferation (Ba/F3 cells with MPL and mutCALR Type 1) [5]: 0.225 µg/mL

B9: anti-mutCALR antibody clone 35 (antibody, human IgG1, lambda, V domains shown)
VH: B8 VH with K63R
VL: B8 VL
- IC50 of inhibition of cell proliferation (BaF3 cells expressing MPL/mutCALR Type 1) [6]: 2.18 µg/mL
- IC50 of inhibition of cell proliferation (Ba/F3 cells with MPL and mutCALR Type 1) [5]: 0.088 µg/mL

B10: anti-mutCALR antibody clone 33 (antibody, human IgG1, lambda, V domains shown)
VH: B8 VH
VL: QSALTQPRSVSGSPGQSVTISCAGTGSDVGGYNHVSWYQHHPGKAPKLMIYDVNKRPSGVPDRFSGSKSGNTASLTISGLQAEDEADYYCSSYIPSSTRWVFGGGTKLTVLG
- IC50 of inhibition of cell proliferation (Ba/F3 cells with MPL and mutCALR Type 1) [5]: 16.9 µg/mL

B11: anti-mutCALR antibody clone 31 (antibody, human IgG1, lambda, V domains shown)
VH: B8 VH
VL: B10 VL with R8A, A23T, G26S, H34Y
- IC50 of inhibition of cell proliferation (Ba/F3 cells with MPL and mutCALR Type 1) [5]: 13 µg/mL

B12: anti-mutCALR antibody clone 37 (antibody, human IgG1, lambda, V domains shown)
VH: B8 VH
VL: B8 VL with E52D, P99F
- IC50 of inhibition of cell proliferation (BaF3 cells expressing MPL/mutCALR Type 1) [6]: 0.201 µg/mL

B13: anti-mutCALR antibody clone 34 (antibody, human IgG1, lambda, V domains shown)
VH: B8 VH
VL: QSALTQPASVSGSPGQSITISCTGTSSDVGGYNYVSWYQQHPGKAPKLMIYEVSNRPSGVSNRFSGSKSGNTASLTISGLQAEDEADYYCSSYTSSSTYVFGTGTKVTVLG
- IC50 of inhibition of cell proliferation (Ba/F3 cells with MPL and mutCALR Type 1) [5]: 0.0593 µg/mL

B14: anti-mutCALR antibody clone 53 (antibody, human IgG1, lambda, V domains shown)
VH: QVQLVQSGAEVKKPGASVKVSCKVSGYTLTELSMHWVRQAPGKGLEWMGGFDPEDGETIYAQKFQGRVTMTEDTSTDTAYMELSSLRSEDTAVYYCATDIQGLAEFDYWGQGTLVTVSS
VL: QSALTQPRSVSGSPGQSVTISCTGTNTDVGAYIDVSWYQQHPGKAPKLIIYDVSKWPSGVPDRFSGSKSGNTASLTISGLQAEDEADYYCCSYAGNHSFSFGGGTKVTVLG
notes: human IgG1; group 13
- binding result [1]: no binding (tested: 250 nM)

B15: anti-mutCALR antibody clone 162 (antibody, human IgG1, lambda, N297A)
heavy: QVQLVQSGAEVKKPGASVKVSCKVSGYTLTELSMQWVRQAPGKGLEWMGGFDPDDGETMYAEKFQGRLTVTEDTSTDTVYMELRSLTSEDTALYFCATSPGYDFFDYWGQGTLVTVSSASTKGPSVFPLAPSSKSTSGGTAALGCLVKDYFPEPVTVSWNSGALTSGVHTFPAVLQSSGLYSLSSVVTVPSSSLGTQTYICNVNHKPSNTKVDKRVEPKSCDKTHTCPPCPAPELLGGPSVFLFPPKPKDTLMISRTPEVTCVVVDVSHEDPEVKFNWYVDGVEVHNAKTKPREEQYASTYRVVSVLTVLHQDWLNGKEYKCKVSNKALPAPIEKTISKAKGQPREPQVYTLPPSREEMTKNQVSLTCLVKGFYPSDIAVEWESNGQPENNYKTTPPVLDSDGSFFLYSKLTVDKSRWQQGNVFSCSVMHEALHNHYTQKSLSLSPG
light: SYVLTQPPSVSVAPGKTARITCGGDNIGSKSVHWYQQKPGQAPVLVVYDDSDRPSGIPERFSGSNSGNTATLTISRVEAGDEADYYCQVWDSSNDLLIFGGGTKLTVLGQPKAAPSVTLFPPSSEELQANKATLVCLISDFYPGAVTVAWKADSSPVKAGVETTTPSKQSNNKYAASSYLSLTPEQWKSHRSYSCQVTHEGSTVEKTVAPTECS
notes: human IgG1 N297A variant of clone 15
- Kd [3]: 11.2 nM
- koff [3]: 0.00682 s⁻¹
- kon [3]: 607000 M⁻¹ s⁻¹

B16: anti-mutCALR antibody clone 52 (antibody, human IgG1, kappa, V domains shown)
VH: EVQLVQSGAEVKKPGASVKVSCKVSGYTLTELSMHWVRQAPGKGLEWMGLVDPEDGETIYAEKFQGRVTITADTSTDTAYMELSSPRSEDTAVYYCATTIGDDYFDYWGQGTLVTVSS
VL: not shown
- Log IC50 of inhibition of cell proliferation, antibody + ruxolitinib (Ba/F3-TPOR/mutCALR type 1 cells) [4]: -0.709 Log IC50 (µg/mL)
- IC50 of inhibition of cell proliferation (Ba/F3 cells with MPL and mutCALR Type 1) [5]: 0.0337 µg/mL

B17: anti-mutCALR antibody clone 52 (antibody, human IgG1, kappa, V domains shown)
VH: B16 VH
VL: not shown
- binding result [1]: no binding (tested: 250 nM)

B18: anti-mutCALR antibody clone 40 (antibody, human IgG1, lambda, V domains shown)
VH: EVQLVQSGAEVKKPGASVKVSCKVSGYTLTESSMHWVRQAPGKGLEWMGLVDPEDGETIYAQKFQGRVTMTEDTSTDTAYMELSSLRSEDTAVYYCAREEWSGDGDDAFDIWGQGTMVTVSS
VL: QSVLTQPPSVSAAPGQKVTISCSGSSSNIGSYSVSWYQQLPGTAPKLLIYDNNKRPSGIPDRFSGSNSGTSATLGITGLQTGDEADYYCGTWDSSLSAWVFGGGTKLTVLG
- Log IC50 of inhibition of cell proliferation, antibody + ruxolitinib (Ba/F3-TPOR/mutCALR type 1 cells); extrapolated from fitted curve [4]: -1.59 Log IC50 (µg/mL)
- IC50 of inhibition of cell proliferation (Ba/F3 cells with MPL and mutCALR Type 1) [5]: 0.0384 µg/mL
